Results as given in US20210340238A1, “TGFß1 INHIBITORS AND USE THEREOF” (Scholar Rock, Inc., priority 2018, published 2021).
“Also recorded” adds a separate entry of the source.

How the values were obtained:
[1] = biological target: Matrix-associated proTGFβ1; assay: MSD-SET binding, ECM average of hLTBP1 and hLTBP3 complexes; design: species or system human; settings: average KD of (B) and (C), read-out: (D) ECM AVRG
Source text: Column (A) of the table provides monoclonal antibodies with discrete amino acid sequences. […] Columns (B), (C), (E) and (F) provide affinities of each of the listed antibodies, measured in KD, towards the antigen complex as indicated, respectively. […] Similarly, Average KD values calculated from (E) and (F) are shown in the corresponding column (G), which collectively represents affinities of the antibodies to cell-surface or cell-associated proTGF complexes. Finally, relative ratios between the average KD values from columns (D) and (G) are expressed as fold bias” in column (H). Thus, the greater the numerical of column (H) is, the greater bias exists for the particular antibody, when comparing binding preferences of the antibody for matrix-associated complexes to cell-surface complexes. This is one way of quantitatively representing and comparing inherent bias of antibodies to their target complexes. Such analyses may be useful in guiding the selection process for a candidate antibody for particular therapeutic use. Select antibodies of the present disclosure, as measured by MSD-SET, show context-bias (i.e., greater than five-fold bias) or unbias (i.e., less than 5-fold bias) toward matrix-associated complexes over cell-associated complexes. […] Without being bound by a particular theory, the differences in the kinetics of the assays and/or differences in the nature of recombinant proteins may account for the noticeable differences seen in Ab19 binding to hGARP complexes observed in the above Octet assay (see Table 6) compared to the below MSD-SET assay (see Table 7 below). For example, the Octet assay measures kinetic on and off rates, while the MSD-SET assay measures binding at equilibrium. In addition, the recombinant antibodies used in the Octet assay were expressed as IgG1 antibodies in yeast, while the antibodies used in the MSD assay were expressed as IgG4 antibodies in mammalian cells.

[2] = tested on: TGFβ signaling (Smad2/3 phosphorylation; Col1a1, Col3a1, Fn1); assay: Col4a3−/− genetic model of Alport syndrome (kidney pSmad2/3 ELISA, qPCR); assay type: in vivo, mouse
Source text: The murine Col4a3−/− model is an established genetic model of autosomal recessive Alport syndrome. Alport mice lack a functional collagen 4A3 gene (Col4A3−/−) and therefore cannot form normal type IV collagen trimers, which require α3, α4, and α5 chains. Col4a3−/− mice develop fibrosis in the kidney consistent with renal fibrosis in human patients, including interstitial fibrosis and tubular atrophy, and Col4a3−/− mice develop end-stage renal disease (ESRD) between 10 and 30 week of age, depending on the genetic background of the mouse. The structural and functional manifestation of renal pathology in Col4a3−/− mice, combined with the progression to ESRD make Col4a3−/− mice an ideal model to understand kidney fibrosis. Previous reports point to the importance of the TGFβ signaling pathway in this process, and treatment with either […], a known activator of TGFβ, or with a TGFβ ligand trap has been reported to prevent renal fibrosis and inflammation in Alport mice (Hahm et al. (2007) The American Journal of Pathology, 170(1): 110-125).
F1 offspring from Col4a3+/− males on a 129/Sv genetic background crossed to Col4a3+/− females on a C57/Bl6 genetic were employed for the study.
It is well documented that TGFβ receptor activation leads to a downstream signaling cascade of intra cellular events, including phosphorylation of Smad2/3. […] FIG. 7A provides a graph showing relative ratios of phosphorylated vs. total (phosphorylated and unphospohrylated) Smad2/3.
An IgG was used as negative control in both heterozygous (Col4a3+/−; Het) and knock out (Col4a3−/−; KO) mice. Following six weeks of antibody treatment (12 weeks after birth), animals were sacrificed, and the kidneys were collected for analyses.
To assess the functional effect of TGFβ inhibition, a third study was carried out in the Col4a3−/− model of kidney fibrosis. […] Treatment effect was assessed by gene expression, which was evaluated by quantitative polymerase chain reaction (qPCR) using cDNA generated from the kidneys of mice in this study.

[3] = tested on: liver fibrosis (pSmad2/3, hydroxyproline, type I collagen); settings: CDHFD mice, weeks 4-12
Source text: The Choline deficient high fat diet (CDHFD) is an established dietary model of Non-Alcoholic steatohepatitis (NASH). In this model, male C57BL/6J mice are fed a choline deficient, 0.1% Methionine, high fat diet for 12 weeks. Three to six weeks after the start of the CDHFD, expression of α-sma protein (a marker for activation of hepatic stellate cells) increases and the development of hepatic fibrosis is accompanied by an increase in the hydroxyproline content accompanied by a rise in intrahepatic collagen synthesis and deposition (Matsumoto et. al, Int J Exp Pathol. 2013 April; 94(2):93-103).
Animals in the test cohorts were on the CDHFD for the duration of the study. A separate cohort of mice were administered a regular chow diet as a study control. […] Antibody test concentrations were as follows: 15 mg/kg, 5 mg/kg or 1.5 mg/kg twice a week (i.e., 30, 10, or 3 mg/kg/week) for a test duration of 8 weeks (i.e., weeks 4 thru 12). An IgG isotype antibody was used as a negative control at 15 mg/kg twice weekly (30 mg/kg/week). Following 8 weeks of dosing, animals were sacrificed and livers collected for analyses.
Serum measurements were also taken to determine the extent of antibody exposure during the study.
TGFβ1 receptor engagement leads to intracellular signaling events including the phosphorylation of Smad2 and Smad3.
Hydroxyproline is a signature amino acid for fibrillar collagens and comprises approximately 13.5% of the protein. […] Hydroxyproline acts as an important diagnostic indicator of the severity of fibrosis.
To assess the levels of type 1 collagen deposition in livers from CDHFD-treated mice, immunohistochemistry (IHC) protocols were developed for anti-mouse type I collagen antibody (rabbit polyclonal; Abcam; ab21286) using the Leica Bond RX staining system. Mouse liver was collected and fixed in 10% neutral buffered formalin (NBF) for 24 hours at room temperature. Fixed livers were then trimmed into 3-5 mm cross sections and stored in 70% ethanol until processed for paraffin infiltration and embedding. Paraffin embedded livers were sectioned at 4 μm and mounted on slides for IHC staining. Type 1 collagen primary antibody was used at a 5 μg/mL final concentration along with a matched isotype primary control (rabbit monoclonal IgG; Cell Signaling Technologies; 3900S). Epitope retrieval was performed with a pH 6 citrate buffer incubated at 100° C. for 20 minutes. […]
Stained slides were sent to HistoTox Labs for imaging with an Aperio AT2 whole slide scanner and collagen staining was analyzed using Visiopharm image analysis software. […] Total collagen positive area was measured using an intensity-based thresholding algorithm which classified each pixel of the image as high positive, medium positive, low positive, or negative staining area.

B1: Ab2: isoform-selective inhibitor of TGFβ1 activation; VH SEQ ID NO: 13, VL SEQ ID NO: 15; human IgG4 (antibody, V domains shown)
VH: EVQLLESGGGLVQPGGSLRLSCAASGFTFADYAMTWVRQAPGKGLEWVSAISGSGAATYFADSVKGRFTISRDNSKNTLYLQMNSLRAEDTAVYYCARVSSGHWDFDYWGQGTLVTVSS
VL: DIQLTQSPSSLSASVGDRVTITCRASQSISSYLNWYQQKPGKAPKLLIYAASNLQSGVPSRFSGSGSGTDFTLTISSLQPEDFATYYCQQTYTVPLTFGGGTKVEIK
modifications: human IgG4 constant regions
- Kd [1]: 0.266 nM
- Expression of Col1a1, Col3a1 and Fn1 in kidney (qPCR) ([2]; 5 mg/kg i.p. twice a week from week 6 to week 14, Col4a3−/− mice): significantly reduced the expression of Col1a1 and Col3a1; also recorded: Expression of Fn1 showed a similar trend in Ab2-treated Col4a3−/− mice, though this effect was not statistically significant
- Relative ratio of phosphorylated vs. total Smad2/3 in whole kidney lysates ([2]; i.p. twice weekly for six weeks from week 6, Ab3 5 or 1.5 mg/kg, Ab2 1.5 mg/kg, vs IgG treated Col4a3−/− mice): significant reduction in relative phosphorylation of Smad2/3
- Relative ratio of phosphorylated vs. total Smad2/3 in whole kidney lysates ([2]; single 10 mg/kg i.p. dose 48 hours before sacrifice, 9 week old Col4a3−/− mice): sufficient to significantly inhibit pSmad2/3 signaling
- Relative ratio of phosphorylated Smad2/3 in liver lysates (ELISA) ([3]; 15, 5 or 1.5 mg/kg i.p. twice a week): significantly reduced the relative ratio of phosphorylated Smad2/3 compared to IgG control; also recorded: inverse correlation between serum levels of Ab2 and phosphorylated Smad2/3; also recorded: significantly reduces phosphorylation of Smad2/3 as compared to Ab3 and IgG treated mice on CDHFD
- Liver fibrosis as measured by hydroxyproline levels ([3]; i.p. twice a week, vs IgG control): marked reduction in collagen deposition
